Measured values as given in US20060257938A1, “Method of screening for drugs that block ligand binding to a lipid binding protein” (priority 2005, published 2006).
Several values for one entry are separate records, joined by “and”; a condition that tells them apart may be missing. Identical values can stand only once.

How the values were obtained:
Type in all cases: binding
[1] = Probe fluorescence ratio response to arachidonic acid relative to ADIFAB2; conditions: arachidonic acid; response relative to ADIFAB2
How it was run: (§1)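 Each fatty acid's response was expressed relative to ADIFAB2, the rI-FABP-L72A probe, as ΔR/ΔRreference. ΔR is the change in the background-corrected two-wavelength intensity ratio R=Fλ1/Fλ2 from its analyte-free baseline R0. Emission was read near about 420-480 nm for unbound and about 495-580 nm for FFA-bound probe.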

[2] = Probe fluorescence ratio response to linolenic acid relative to ADIFAB2; conditions: response relative to ADIFAB2
How it was run: as §1

[3] = Probe fluorescence ratio response to linoleic acid relative to ADIFAB2; conditions: response relative to ADIFAB2
How it was run: as §1

[4] = Probe fluorescence ratio response to oleic acid relative to ADIFAB2; conditions: response relative to ADIFAB2
How it was run: as §1

[5] = Probe fluorescence ratio response to palmitic acid relative to ADIFAB2; conditions: response relative to ADIFAB2
How it was run: as §1

Molecule | DR/DR AA [1] | DR/DR LNA [2] | DR/DR LA [3] | DR/DR OA [4] | DR/DR PA [5]
14E, 72A (protein, listed as Rattus norvegicus, PEPTIDE (1)...(131) wild-type rat intestinal fatty acid binding protein) AFDGTWKVDRNENEEKFMEKMGINVVKRKLGAHDNLKLTITQEGNKFTVKESSNFRNIDVVFELGVDFAYSAADGTELTGTWTMEGNKLVGKFKRVDNGKELIAVREISGNELIQTYTYEGVEAKRIFKKE | 0.51 | 0.61 | 0.56 | 0.41 | 0.44
14H, 72A (protein, listed as Rattus norvegicus, PEPTIDE (1)...(131) wild-type rat intestinal fatty acid binding protein) AFDGTWKVDRNENHEKFMEKMGINVVKRKLGAHDNLKLTITQEGNKFTVKESSNFRNIDVVFELGVDFAYSAADGTELTGTWTMEGNKLVGKFKRVDNGKELIAVREISGNELIQTYTYEGVEAKRIFKKE | 0.37 | 0.42 | 0.45 | 0.25 | 0.17
14N, 72A (protein, listed as Rattus norvegicus, PEPTIDE (1)...(131) wild-type rat intestinal fatty acid binding protein) AFDGTWKVDRNENNEKFMEKMGINVVKRKLGAHDNLKLTITQEGNKFTVKESSNFRNIDVVFELGVDFAYSAADGTELTGTWTMEGNKLVGKFKRVDNGKELIAVREISGNELIQTYTYEGVEAKRIFKKE | 0.42 | 0.53 | 0.49 | 0.35 | 0.32
14I, 72A (protein, listed as Rattus norvegicus, PEPTIDE (1)...(131) wild-type rat intestinal fatty acid binding protein) AFDGTWKVDRNENIEKFMEKMGINVVKRKLGAHDNLKLTITQEGNKFTVKESSNFRNIDVVFELGVDFAYSAADGTELTGTWTMEGNKLVGKFKRVDNGKELIAVREISGNELIQTYTYEGVEAKRIFKKE | 0.57 and 0.572 | 0.90 and 0.899 | 0.79 and 0.792 | 0.57 and 0.572 | 0.59 and 0.586
14K, 72A (protein, listed as Rattus norvegicus, PEPTIDE (1)...(131) wild-type rat intestinal fatty acid binding protein) AFDGTWKVDRNENKEKFMEKMGINVVKRKLGAHDNLKLTITQEGNKFTVKESSNFRNIDVVFELGVDFAYSAADGTELTGTWTMEGNKLVGKFKRVDNGKELIAVREISGNELIQTYTYEGVEAKRIFKKE | 1.08 | 0.92 | 1.06 | 0.84 | 0.47
102I, 72A (protein, listed as Rattus norvegicus, PEPTIDE (1)...(131) wild-type rat intestinal fatty acid binding protein) AFDGTWKVDRNENYEKFMEKMGINVVKRKLGAHDNLKLTITQEGNKFTVKESSNFRNIDVVFELGVDFAYSAADGTELTGTWTMEGNKLVGKFKRVDNGKEIIAVREISGNELIQTYTYEGVEAKRIFKKE | 1.46 and 1.461 | 1.76 and 1.763 | 1.90 and 1.902 | 1.93 and 1.929 | 1.17 and 1.169
14L, 72A (protein, listed as Rattus norvegicus, PEPTIDE (1)...(131) wild-type rat intestinal fatty acid binding protein) AFDGTWKVDRNENLEKFMEKMGINVVKRKLGAHDNLKLTITQEGNKFTVKESSNFRNIDVVFELGVDFAYSAADGTELTGTWTMEGNKLVGKFKRVDNGKELIAVREISGNELIQTYTYEGVEAKRIFKKE | 0.89 | 0.93 | 0.87 | 0.44 | 3.07
14G, 72A (protein, listed as Rattus norvegicus, PEPTIDE (1)...(131) wild-type rat intestinal fatty acid binding protein) AFDGTWKVDRNENGEKFMEKMGINVVKRKLGAHDNLKLTITQEGNKFTVKESSNFRNIDVVFELGVDFAYSAADGTELTGTWTMEGNKLVGKFKRVDNGKELIAVREISGNELIQTYTYEGVEAKRIFKKE | 0.43 | 0.46 | 0.42 | 0.24 | 0.19
102K, 72A (protein, listed as Rattus norvegicus, PEPTIDE (1)...(131) wild-type rat intestinal fatty acid binding protein) AFDGTWKVDRNENYEKFMEKMGINVVKRKLGAHDNLKLTITQEGNKFTVKESSNFRNIDVVFELGVDFAYSAADGTELTGTWTMEGNKLVGKFKRVDNGKEKIAVREISGNELIQTYTYEGVEAKRIFKKE | 0.47 | 0.51 | 0.55 | 0.48 | 0.23
14S, 72A (protein, listed as Rattus norvegicus, PEPTIDE (1)...(131) wild-type rat intestinal fatty acid binding protein) AFDGTWKVDRNENSEKFMEKMGINVVKRKLGAHDNLKLTITQEGNKFTVKESSNFRNIDVVFELGVDFAYSAADGTELTGTWTMEGNKLVGKFKRVDNGKELIAVREISGNELIQTYTYEGVEAKRIFKKE | 0.46 | 0.53 | 0.53 | 0.33 | 0.27
14F, 72A (protein, listed as Rattus norvegicus, PEPTIDE (1)...(131) wild-type rat intestinal fatty acid binding protein) AFDGTWKVDRNENFEKFMEKMGINVVKRKLGAHDNLKLTITQEGNKFTVKESSNFRNIDVVFELGVDFAYSAADGTELTGTWTMEGNKLVGKFKRVDNGKELIAVREISGNELIQTYTYEGVEAKRIFKKE | 0.83 | 0.88 | 0.88 | 0.72 | 0.60
14R, 72A (protein, listed as Rattus norvegicus, PEPTIDE (1)...(131) wild-type rat intestinal fatty acid binding protein) AFDGTWKVDRNENREKFMEKMGINVVKRKLGAHDNLKLTITQEGNKFTVKESSNFRNIDVVFELGVDFAYSAADGTELTGTWTMEGNKLVGKFKRVDNGKELIAVREISGNELIQTYTYEGVEAKRIFKKE | 0.49 | 0.51 | 0.56 | 0.26 | 0.26
14P, 72A (protein, listed as Rattus norvegicus, PEPTIDE (1)...(131) wild-type rat intestinal fatty acid binding protein) AFDGTWKVDRNENPEKFMEKMGINVVKRKLGAHDNLKLTITQEGNKFTVKESSNFRNIDVVFELGVDFAYSAADGTELTGTWTMEGNKLVGKFKRVDNGKELIAVREISGNELIQTYTYEGVEAKRIFKKE | 0.55 | 0.64 | 0.64 | 0.58 | 0.30
14M, 72A (protein, listed as Rattus norvegicus, PEPTIDE (1)...(131) wild-type rat intestinal fatty acid binding protein) AFDGTWKVDRNENMEKFMEKMGINVVKRKLGAHDNLKLTITQEGNKFTVKESSNFRNIDVVFELGVDFAYSAADGTELTGTWTMEGNKLVGKFKRVDNGKELIAVREISGNELIQTYTYEGVEAKRIFKKE | 0.62 and 0.619 | 0.68 and 0.684 | 0.68 and 0.685 | 0.41 and 0.412 | 0.45 and 0.452
14Q, 72A (protein, listed as Rattus norvegicus, PEPTIDE (1)...(131) wild-type rat intestinal fatty acid binding protein) AFDGTWKVDRNENQEKFMEKMGINVVKRKLGAHDNLKLTITQEGNKFTVKESSNFRNIDVVFELGVDFAYSAADGTELTGTWTMEGNKLVGKFKRVDNGKELIAVREISGNELIQTYTYEGVEAKRIFKKE | 0.50 | 0.52 | 0.48 | 0.29 | 0.33
